According to article PMC10397247:
Like-named read-outs stand apart in the source and are kept apart here. Blank lines part the entries; values can stand above or below the binder they belong to.

What was measured:
4H63-AA = target: T1, 4H63-AA; assay: two-hybrid library CCmax; conditions: mean of both orientations;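 further: natural log of median RNA to DNA barcode read ratio; higher means stronger binding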
T1 chain: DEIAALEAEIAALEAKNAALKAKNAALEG

4H483-AA = target: T2, 4H483-AA; assay: two-hybrid library CCmax; conditions: mean of both orientations;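 further: natural log of median RNA to DNA barcode read ratio; higher means stronger binding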
T2 chain: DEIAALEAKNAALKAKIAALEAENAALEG

4H3094-AA = target: T3, 4H3094-AA; assay: two-hybrid library CCmax; conditions: mean of both orientations;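 further: natural log of median RNA to DNA barcode read ratio; higher means stronger binding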
T3 chain: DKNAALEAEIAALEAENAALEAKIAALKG

4H324-AA = target: T4, 4H324-AA; assay: two-hybrid library CCmax; conditions: mean of both orientations;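 further: natural log of median RNA to DNA barcode read ratio; higher means stronger binding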
T4 chain: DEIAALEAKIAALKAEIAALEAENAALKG

4H2774-AA = target: T5, 4H2774-AA; assay: two-hybrid library CCmax; conditions: mean of both orientations
T5 chain: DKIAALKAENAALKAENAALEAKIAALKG

4H3969-AA = target: T6, 4H3969-AA; assay: two-hybrid library CCmax; conditions: mean of both orientations
T6 chain: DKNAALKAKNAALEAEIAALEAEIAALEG

4H432-AA = target: T7, 4H432-AA; assay: two-hybrid library CCmax; conditions: mean of both orientations
T7 chain: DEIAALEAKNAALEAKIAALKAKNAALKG

4H2621-AA = target: T8, 4H2621-AA; assay: two-hybrid library CCmax
T8 chain: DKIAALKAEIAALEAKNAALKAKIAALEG

4H3414-AA = target: T9, 4H3414-AA; assay: two-hybrid library CCmax; conditions: mean of both orientations
T9 chain: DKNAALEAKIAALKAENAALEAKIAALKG

4H3974-AA = target: T10, 4H3974-AA; assay: two-hybrid library CCmax; conditions: mean of both orientations
T10 chain: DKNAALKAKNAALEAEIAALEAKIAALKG

4H2903-AA = target: T11, 4H2903-AA; assay: two-hybrid library CCmax; conditions: mean of both orientations
T11 chain: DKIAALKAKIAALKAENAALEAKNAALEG

4H3049-AA = target: T12, 4H3049-AA; assay: two-hybrid library CCmax; conditions: mean of both orientations
T12 chain: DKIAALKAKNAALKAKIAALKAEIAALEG

4H380-AA = target: T13, 4H380-AA; assay: two-hybrid library CCmax; conditions: mean of both orientations
T13 chain: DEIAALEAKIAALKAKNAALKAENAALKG

4H3629-AA = target: T14, 4H3629-AA; assay: two-hybrid library CCmax; conditions: mean of both orientations
T14 chain: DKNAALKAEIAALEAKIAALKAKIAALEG

4H2760-AA = target: T15, 4H2760-AA; assay: two-hybrid library CCmax; conditions: mean of both orientations
T15 chain: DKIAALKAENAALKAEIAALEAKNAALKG

4H3595-AA = target: T16, 4H3595-AA; assay: two-hybrid library CCmax; conditions: mean of both orientations
T16 chain: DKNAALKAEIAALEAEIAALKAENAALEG

4H341-AA = target: T17, 4H341-AA; assay: two-hybrid library CCmax; conditions: mean of both orientations
T17 chain: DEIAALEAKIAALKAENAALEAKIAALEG

4H464-AA = target: T18, 4H464-AA; assay: two-hybrid library CCmax; conditions: mean of both orientations
T18 chain: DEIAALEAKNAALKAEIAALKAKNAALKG

4H3939-AA = target: T19, 4H3939-AA; assay: two-hybrid library CCmax; conditions: mean of both orientations
T19 chain: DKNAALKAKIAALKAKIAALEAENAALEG

4H3619-AA = target: T20, 4H3619-AA; assay: two-hybrid library CCmax; conditions: mean of both orientations
T20 chain: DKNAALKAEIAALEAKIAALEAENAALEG

4H2728-AA = target: T21, 4H2728-AA; assay: two-hybrid library CCmax; conditions: mean of both orientations
T21 chain: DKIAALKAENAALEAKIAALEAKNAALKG

4H3777-AA = target: T22, 4H3777-AA; assay: two-hybrid library CCmax; conditions: mean of both orientations
T22 chain: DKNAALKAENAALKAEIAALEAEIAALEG

4H2699-AA = target: T23, 4H2699-AA; assay: two-hybrid library CCmax
T23 chain: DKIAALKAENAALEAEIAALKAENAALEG

4H3449-AA = target: T24, 4H3449-AA; assay: two-hybrid library CCmax; conditions: mean of both orientations
T24 chain: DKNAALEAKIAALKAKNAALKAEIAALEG

4H2947-AA = target: T25, 4H2947-AA; assay: two-hybrid library CCmax; conditions: mean of both orientations
T25 chain: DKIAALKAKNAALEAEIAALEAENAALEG

4H2961-AA = target: T26, 4H2961-AA; assay: two-hybrid library CCmax; conditions: mean of both orientations
T26 chain: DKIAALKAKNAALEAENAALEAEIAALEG

4H3915-AA = target: T27, 4H3915-AA; assay: two-hybrid library CCmax; conditions: mean of both orientations
T27 chain: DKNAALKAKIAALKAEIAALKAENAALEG

4H446-AA = target: T28, 4H446-AA; assay: two-hybrid library CCmax; conditions: mean of both orientations
T28 chain: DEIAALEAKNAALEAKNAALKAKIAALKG

4H3129-AA = target: T29, 4H3129-AA; assay: two-hybrid library CCmax
T29 chain: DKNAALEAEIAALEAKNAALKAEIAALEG

4H3782-AA = target: T30, 4H3782-AA; assay: two-hybrid library CCmax; conditions: mean of both orientations
T30 chain: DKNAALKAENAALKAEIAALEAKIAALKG

P8mS = target: T31, P8mS; assay: two-hybrid library CC1; conditions: mean of both orientations
T31 chain: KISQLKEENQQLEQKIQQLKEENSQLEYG

P6SC1 = target: T32, P6SC1; assay: two-hybrid library CC1; conditions: mean of both orientations
T32 chain: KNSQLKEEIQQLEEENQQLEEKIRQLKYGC

P7 = target: T33, P7; assay: two-hybrid library CC1; conditions: mean of both orientations
T33 chain: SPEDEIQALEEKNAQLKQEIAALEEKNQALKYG

P6 = target: T34, P6; assay: two-hybrid library CC1
T34 chain: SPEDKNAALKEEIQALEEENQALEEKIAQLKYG

P9 = target: T35, P9; assay: two-hybrid library CC1; conditions: mean of both orientations
T35 chain: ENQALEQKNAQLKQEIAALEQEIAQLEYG

P8 = target: T36, P8; assay: two-hybrid library CC1; conditions: mean of both orientations
T36 chain: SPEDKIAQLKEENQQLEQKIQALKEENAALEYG

P6SC2 = target: T37, P6SC2; assay: two-hybrid library CC1; conditions: mean of both orientations
T37 chain: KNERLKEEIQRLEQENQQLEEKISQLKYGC

P7mS = target: T38, P7mS; assay: two-hybrid library CC1; conditions: mean of both orientations
T38 chain: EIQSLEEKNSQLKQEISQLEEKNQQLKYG

P6mS = target: T39, P6mS; assay: two-hybrid library CC1; conditions: mean of both orientations
T39 chain: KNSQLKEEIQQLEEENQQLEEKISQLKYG

interaction score (4H63-AA): -0.787
interaction score (4H483-AA): -1.55
interaction score (4H3094-AA): 1.09
interaction score (4H324-AA): 1.33
interaction score (4H2774-AA): -0.116
interaction score (4H3969-AA): -1.35
interaction score (4H432-AA): -1.5
interaction score (4H2621-AA): 1.1
interaction score (4H3414-AA): 2.21
interaction score (4H3974-AA): -0.826
interaction score (4H2903-AA): 1.71
interaction score (4H3049-AA): 0.214
interaction score (4H380-AA): -0.998
interaction score (4H3629-AA): 0.71
interaction score (4H2760-AA): -0.432
interaction score (4H3595-AA): 0.312
interaction score (4H341-AA): 2.39
interaction score (4H464-AA): -1.44
interaction score (4H3939-AA): -0.531
interaction score (4H3619-AA): 0.162
interaction score (4H2728-AA): 1.6
interaction score (4H3777-AA): -1.64
interaction score (4H2699-AA; mean of both orientations): -0.173
interaction score (4H3449-AA): -0.832
interaction score (4H2947-AA): -1.47
interaction score (4H2961-AA): -0.217
interaction score (4H3915-AA): -1.18
interaction score (4H446-AA): -1.41
interaction score (4H3129-AA): -1.64
interaction score (4H3782-AA): -1.63
B1: 4H2621-AA (peptide)
chain: DKIAALKAEIAALEAKNAALKAKIAALEG

interaction score (4H63-AA): -1.27
interaction score (4H483-AA): 0.687
interaction score (4H2774-AA): -1.26
interaction score (4H3969-AA): -1.41
interaction score (4H3414-AA): -0.748
interaction score (4H2903-AA): -1.69
interaction score (4H3049-AA): 0.526
interaction score (4H380-AA): -1.08
interaction score (4H3629-AA): -0.9
interaction score (4H3595-AA): -1.96
interaction score (4H341-AA): -1.58
interaction score (4H464-AA): 2.17
interaction score (4H3939-AA): -1.77
interaction score (4H2728-AA): -0.707
interaction score (4H2699-AA): -1.06
interaction score (4H2961-AA): -1.89
interaction score (4H446-AA): -1.2
interaction score (4H3129-AA; mean of both orientations): 1.24
interaction score (4H3782-AA): -0.882
B2: 4H2699-AA (peptide)
chain: DKIAALKAENAALEAEIAALKAENAALEG

B3: P6 (peptide)
chain: T34 chain
interaction score (P8mS): -2.62
interaction score (P6SC1): -2.74
interaction score (P7): -0.929
interaction score (P6): -2.71
interaction score (P9): -1.98
interaction score (P8): -2.37
interaction score (P6SC2): -2.56
interaction score (P7mS): -2.6
interaction score (P6mS): -2.76
